Assay: label from the status in PepcDB records

Sequence | protein production
MMKEFTPAPDSASIVSVTDRVKPVALGMGVTSVHFLGDRAAFVGGEENVAFVDSQGEITTVAVHGGGILSTASDGKRLVMGGDDGKVVSLDAKGEVTLLATDPKRRWIDAVALHADGAFAWSAGKTATVKSGKTEEKSLEVPSTVGGLAFAPKGLRLAIAHYNGATLWFPNMAASAEFLPWAGSHHAVTFSPDNKFLVTAMHEPALHGWRLADNRHMRMTGYPGRVRSMSWSAGGKALATSGADTVILWPFGSKDGPMGKEPAMLAPLQARVSVVACHPKNDILAAGYSDGTVLMVRLEDGAEILVRRNGTPPVAALAWNAKGTLLAFADENGDGGLLELLEHHHHHH | not failed
MMKIIAFVGMPASGKSEASRIAAEMGIPVIIMGDVIRKEVLKRGLEPNDSNTGMVATDLRKHEGMGAVARRCISQIRETGSELVVVDGVRGIAEVECFRKEFGKGFILISIYAPIEVRFSRVQKRGRSDDMNSIEGLRHRDERELSWGMGEAIDASNVEIENNFTLETFRKDVRDVLSNYLEADLEK | not failed
MMKKLFLDTHSASGEIKLTDGLLYWFPQFLTPIQADQAFQQMLTHLDWQQKSIRLFGKSVLQPRLIAWYGEKGYRYSGLSLSAQPFPPPLLTLKTQCEQAAQAPFNSVLANLYRDGQDSMGWHQDNEPELGSNPVIASLSLGESRRFLLRHHKDHALQVECELNHGDLLIMAGNTQHFWQHAIPKTRQTKQTRINLTFRNILLEHHHHHH | not failed
MMKKTAAIISACMLTFALSACSGSNYVMHTNDGRTIVSDGKPQTDNDIGMISYKDANGNKQQINRTDVKEMVELEQLEHHHHHH | failed
MMKLKKVLVLGGTRFFGKHLVEALLKDGHDVTIATRGITEDSFGSRVKRLIVDREDEKQLAERLEDKSYDIVYDNLCYSSNAATIICEVLRGKTRKYVMTSSMAVYDPAINLSEEDFNPYEYTIAYGGRNDFNYGEGKRVAEAVVFQQATFPVVAVRFPVVIGENDYTKRLQFYVEHIVREEPVAVNHLDGELSFIHEEEAGGFLAWCGMEDIEGPINACSNGVVSSREIIHFIEENTGIKPLVQEVGDHVAPYNEVTNCTLHNGKANELGFPFRELKIEIEKVLRYYIHATK | failed
MMKLLSFDEACQWFDSLPAHKRIATLSPYYVLLDALRDTRLLATYIGFRQGDVFWMHSVHCSAAMAGEVIDLQSPYGYGGPISNCDDPVFLNMVWDLYVEFCARQGWLAEFVRFHPLGGVSSSYGGTIVVDRLTVAIDLTGPNIRSIYSTRCRTAVRKAINNGLNVRVGSERELREIFPHFYRDGMRAIAADKFYLFNDLYFSGFSTWKCATLLICHCDDDWLSAGIFLKDGNVMEYHLSATTPAGRNLGATNLLLDAAAHLGQEQGCSFLYLGGGTDSEKNNPLLFFKSGFSAATYPFLIGFTAFNQDKYQALREKFISDHKPTDRFLFYR | failed
MMKLMFASDIHGSLPATERVLELFAQSGAQWLVILGDVLNHGPRNALPEGYAPAKVAERLNEVAHKVIAVRGNCDSEVDQMLLHFPITAPWQQVLLEKQRLFLTHGHLFGPENLPALNQNDVLVYGHTHLPVAEQRGEIFHFNPGSVSIPKGGNPASYGMLDNDVLSVIALNDQSIIAQVAINP | not failed
MMKMMTRVLSSPSSHVSSLKYSPRRVIRASRDHLRAETLKSHQLPSGSSSTSLCSCGRKHFLEAASPTMPFLPICSPNASRSKDVSETFHPQRPDWYKELFAWFLSTGMRSYEAEVSLCDLNASFYDPFLENDRSFSCFMFVLFGKIAEYKRKLFEKLAGKAETVLEIGVGTGPNLKYFAGNENVCVFGMDPNHKMEKYACESAREAGMKPENFRFMHGVSKLLCFDL | failed
MMKPSVSAAILAAGTSTRMNEMKQLAKIQGTYMLKYVIDQVSNHPFQHIFVIVGHQADIVMKMIQVEDKRVQWLVNDQYKQGQSTSFKLAMEQARQYGDAVMMFLADQPLIEKETVNIVLNEGITRVQEEPFIVRPMYEKKEGHPVYWGNIHALDCSAVNGDKGGKTLMEELERMLIPVHDQGVLVDVDTCEDYKKVNDLMKRKSPSTHLEHHHHHH | not failed
MMKRHNILTVLAVLLLTFAACDKNSAPGFSFTTDSILTLTFDKELDAAFVGVGTQNYNPVGMRRSGDTLFIANRAEGSDGVWVVRASTGELLYSLTGWTYNGKNEKFDNQVMDVAVSSDYIFVVNRSSRIDLFRRNDYSYVTTIGRTGWQSSSLLQCEAAEVAGDKLFIRDKQKIKVVQISDCTPENRFKVPVFAQNTDSTSSNNGFNLESVARHEGLIYVSDYETSRILVIDPATVAVKGEPVRFLRSYRMPNKPLSMGFFQNEMYVVCANNCIVRVDLRTGKELGSYSSFAGGVGLGTPGRLLFHNDTFYLAGRNANAPRLIQGKVMFVEISELD | failed
MMLRRLALSAATGLMLALPALAETVSDFRLPNGLEVVVIEDHRAPVVTHMVWYRVGAADEPPGHSGIAHFLEHLMFKGTDEMSAGEFSATVEAQGGDDNAFTSWDYTAYFQRVAADRLDLMMKMEADRMRDLQMTEEDVRTERQVVLEERSQRTDSDPGAVFSEQSRAAAYLNHPYGIPIIGWRHEIEQLGREDAFSFYRTYYAPNNAILVVAGDVDPAEVRRMAEEHYGALEPTPNLPERLRPQEPPQLAERRLTFSDPRVAQPYVSRSYLAATRETGAQEKAAALTILAELLGGSPTTSLLSRELQFGPEPKAVWAQAYYDGGGLDSGTFGLAVVPAAGVSLQEAEDAMDAVVARFLKEGPDAEDFERIKTQLGAQDIYSRDNVDGLARRYGAALTTGLTVADVQAWPEVLQAVTPDEVMAAAREVFDRRRAVTGWLMQEDEEKSQ | failed
MMNETLKVIAERYSCRDFKNEMPSDELLQAIAEAAIQAPSGMNRQAWRVIVVKNKELMQEMEAEGLAYLAGMEDQSSYNRIMERGGRLFYGAPCMIVVPIDPTQYGPALVDCGILCQTIALAATSLGIANIMCGYTGLAFASGLRAEEFSKRLGFPEGYAFGCSVLLGHANTTKPPHVPDKDKITYVE | not failed
MMNRILLIFLILMSTCFAGCFEQNNLEKSQEMAEIGFAYIGIDNDKAIEYYEKAIKLNPDDANAISFLGTLYDGEGDREKAYEYLTKALEMEPKNPWMYYNLGLYYLNHDDNMAIGCFEKALRIDPENECCWSQLGYTYYDIGDYTNSKLNFEKAYEINPKDQYSDMIEKCNEGI | failed
MMNSDRNKYRKENDMGKQVRDKEVQEIMDYIMNKGEDSEERVYKLFKMNGVIYEIACNISRNQNSETTQNQIRKFYDYTIKINSKDEKKAKIKLAMMMPQIYYAIQRKVISSDSPFVKFLEDSIDKLNKTEDFENAFNRFLNVFQAIVAYSKKSRSDRNE | failed
MMNYNTPKVSIVVPSLNSISYIRECIDSILNQTLKDIEILCIDANSTDGTLEVLKNYEKKDKRLRVIISDKKSYGYQMNLGIKEAKGEYLGIVESDDYIKTNMYERLYEIAKKNDCEVVKGDFYILESNKGKYSKITPIDFLYNQIISFKTHPNIFNFQSINPIGIYRLDLLRTNQIKLNETPGASYQDNGLWFQIFALAKSIYFINEAFYMLRRDNPNSSVKSKEKVYCACEEYDFIRDFLKKHPDLEKTLAPICALHRFGNYMFTLERIDERYKLDFLKRFSQDFRKILKDKELDENLFGDGDMKIIYSIVENPENYYFLYMGYCNDMFGKLYFGASERIKWQLSYRIGKLLIDLKNPVQILKFPFKLFLEIKQFKFEQKIYKTTIKFYPNLQLPPLEEYSDYEQALKTKKHLSYILGKSFINNPILFIFKIKKIYKQYKKDISSSKKNIKELSDYDFLLNRHKQIFDYTPDFKCPVTFNEKLIYRILYDRSCIYSFLADKIKMRFYVASALSDNHEYSWDKIDILNEKSILFNNIDDLQDKIFETNKCKYLPKIYGIYKNIYDINFNELPNSFVLKTNHDCGGYVIVENKQEFLRDTVVFSNAMKKLKKHLEWNYYSVFREWHYKDIEPRVFAEELLLGENKKPADTYKFHIFDKENLSNNFIQVTTDRFDNYQRAMFDLSWNLAPFNFMYDNKNVTMIPKKPNLLDSMINISLILAKPFDYVRVDLYQFDKKIYIGELTFTHGAAGEKVIPKEWDKKLGDLWRLKRLDNASK | failed
MMQESGTETKSNGSAIQNGSGGSNHLLECGGLREGRSNGETPAVDIGAADLAHAQQQQQQWHLINHQPSRSPSSWLKRLISSPWELEVLQVPLWGAVAETKMSGPVCQPNPSPF | failed
MMQPKFCTRCLAMSTRPRITFNRDGVCNACLWQEQKSSVDWDDRNSKLLSLLDSHRSKNNSYDVIVPVSGGKDGSYVAYNLKHKFNMNPLCVTVTPPLETQLGAQNLKNFIKSGYDQVSININPETIRNINRAGFVHHGFPYFGWLVAIVTSVTRVAQQMNVPLIMYGEDAEMEYGGSSEKANLTTFGIEYMKRVGFEAGYEKVFSTLDLSDSDLYWLTFAEQDKTQVLFSHWSYFENWDPYRNYLVAKKQCGLQEADDTNFGTFTNFAQNDQYLYVLHTYLMYLKFGFGRSNQDACIEIRRGAMKREQAINLVRLYDGQFPDEFLQMYLEYYQMSEAEFNATLARWVNKDLFELKDGLWSPTFTIQ | failed
MMQVQYIIWLSCCFKRMNKDREFTESKTIKQNTKMKKRILGAALLVAIAVAAGWNYNQSRNEVPLSDLALANAEALAQGETDWGNCTYYGCIVDFSSTCNVYSSIWGNLIKVCPNMRG | failed
MMRAKVNQGINLNDYNGVWVIGEQREGKINPVTIELIGEGRKLADQLGKELAVVIAGYEVEKEVKELLHYSVDKVYYINDPLLKDFTTDGYAISIANLIERKKPEVVLVGATSIGRDIAPRIAGKVGTGLTADCTKLEIDSTDNKLLQTRPAFGGNLMATIVCPKNRPQMSTVRPGVMAKAVRNESETGILEVVTPELTEKMIRTRLVEIL | failed
MMRRQASVLLLVSMVSATVLPVFARAPGEREPSCAATSIVLPAGARYPNGIAHAADGTLYVGLVTSGRILRKPPGGEWETFFAGSPAIFAATALRLDEPRGLLWGNSPDFLPAGRRRPHGVFALDLASGAVRRYLTLPGDGMGNDLAVAPDGTVYLSETRDGSLMRLRPGEPAFQVLLRDSRLAGPGGLGAAGIVRVDDDTLLVGNFGSGAIHVVEGVATRPRLREMELPRTLENPDGMALAPDGSLIVLENAIRSGAGKVLRIAEPLAPGRRGIEVIREGLESPVNLTVTGQGCAYVSESRIRHRLLPGREGEVPARFLIHRLPLDAAGGR | failed
MMRRYFYQFSQKMITSVWWLLFVPMLLFAVMSPNIILGDNATFGTSTTLLTTGLIIVIVAVLIMNYAYPRVHRGLYRLLITKQLRTAGVLLALVFIGQLVFVTFVHPVSGFDAGMLHYAATSAKHVQEVGVTAYYSLNQNNMPIMLFMHWLSEVTGQTSWQFFDYVTLFFVDLSAAFNLMSVFVVRRSALGIAMYLHAGWLAVFPSIIMPYTDAWGLPLVSFFMLCYFVMSQTKRPPLLRVAAAVGFGVSVTLTYFMKPSSIIPVIAIAIISFLARLRSRQGSQTTMIFVTVAMAILMLESAGLTYHYTNQAIQNQTYIKIDKSRSIPAIHFMAMGVYGSGGYSEKQAIQMAVLPTKAQKTAYSIKMLKRQLKKLGPWGYLEFLVKKQRNNTADGTFGWLKEGNFFRENQKPSNQGFSNWLKNFIYLYGRHIADFRFVAQLWWLVLLVIIALGFGPRWQLIQLLRLAMIGGFIFLLLFEGGRSRYLIQYLPCLLLLGAFSFERAVANIRRVRDWYQRKLRAAIAADESE | failed
MMSRKRWLALIAAAMLFVASAAISLVSSPAVDVDEWVGTGTSYKQTIVETGTDFGKSIAILELSGVIQDTGSAPSLLNTGVYHHRDFLKQLEKAGEDPNIAGIILQVNTPGGGVLESAEIHKQVEEIVQDSEKPVYVSMGNMAASGGYYISAPATKIYAHPQTITGSIGVIMQSIDISGLAENLGIEFNTFKSGPYKDILSQTREVTDEEEDILQTLVDEMYDEFVRVIVDGRGMSETEVRELADGRIYTGSQAVATGLVDELGGLDDVIESMKEDLGADYNVIRYEHSLGLYDFFSMSTNRLLSPSYELQSIERLLNQSNTPTLQYLYAELEHHHHHH | not failed

Source: a protein production outcome set (Wang et al. 2014)
